According to patent publication US20260258137A1 (HARBOUR BIOMED SHANGHAI, published 2026):
Read-outs that look alike come from different tables or passages of the source.

Key:
[1] = molecular target: T1, human PD-L1 on CHO-K1 cells (CHO-K1/hPD-L1, Nanjing Genscript, M00543) (human, UniProt Q9NZQ7 19-290); assay: flow cytometry on CHO-K1/hPD-L1 cells
T1 construct: whole, on cells; also called CHO-K1 cells overexpressing human PD-L1; human PD-L1 on the cell surface

[2] = molecular target: T2, human PD-L1 on Hep3B cells co-expressing human PD-L1 and OS8 (human, UniProt Q9NZQ7 19-290); assay: cell-based or functional assay
[3] = molecular target: T3, Human PD-L1-hFc protein (Acrobiosystems, PD1-H5258) (human, UniProt Q9NZQ7 19-238); assay: competition ELISA: hB7-1-Biotin binding to coated hPD-L1-hFc
T3 construct: bought reagent; not shown: human Fc (hFc)

[4] = molecular target: T4, Human PD-L1 (Acrobiosystems, EP-101-96tests, A001-214) (human, UniProt Q9NZQ7 19-238); assay: competition ELISA: hPD-1-Biotin binding to coated hPD-L1
T4 construct: bought reagent; also called human PD-L1 protein

[5] = molecular target: T1, human PD-L1 on CHO-K1 cells …; assay: flow cytometry competition: biotin-hPD-1 binding to CHO-K1/hPD-L1 cells
[6] = molecular target: T5, Human PD-L1 (Acrobiosystems, PD1-H5229) (human, UniProt Q9NZQ7 19-238); assay: ELISA, coated human PD-L1
T5 construct: bought reagent; also called human PD-L1 protein

[7] = molecular target: T2, human PD-L1 on Hep3B cells …; assay: cell-based or functional assay; remark: listed apart in the source
[8] = molecular target: T1, human PD-L1 on CHO-K1 cells …; assay: flow cytometry competition: biotin-hPD-1 binding to CHO-K1/hPD-L1 cells; remark: listed apart in the source
[9] = molecular target: T6, cynomolgus PD-L1 on CHO-K1 cells (CHO-K1/cynoPD-L1, Nanjing Genscript, M00573) (cynomolgus, UniProt G7PSE7 19-290); assay: flow cytometry on CHO-K1/cynoPD-L1 cells
T6 construct: also called CHO-K1 cells overexpressing cynomolgus PD-L1
T6 sequence (G7PSE7 entry or part of it limits assumed, one chain of several): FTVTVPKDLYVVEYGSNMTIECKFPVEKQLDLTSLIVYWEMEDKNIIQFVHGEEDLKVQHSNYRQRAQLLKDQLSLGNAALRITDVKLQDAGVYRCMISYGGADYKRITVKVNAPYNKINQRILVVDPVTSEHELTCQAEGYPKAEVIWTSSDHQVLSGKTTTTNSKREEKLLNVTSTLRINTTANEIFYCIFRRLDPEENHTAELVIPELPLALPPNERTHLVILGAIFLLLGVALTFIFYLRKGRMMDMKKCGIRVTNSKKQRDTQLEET

T1 sequence (Q9NZQ7 19-290, one chain of several): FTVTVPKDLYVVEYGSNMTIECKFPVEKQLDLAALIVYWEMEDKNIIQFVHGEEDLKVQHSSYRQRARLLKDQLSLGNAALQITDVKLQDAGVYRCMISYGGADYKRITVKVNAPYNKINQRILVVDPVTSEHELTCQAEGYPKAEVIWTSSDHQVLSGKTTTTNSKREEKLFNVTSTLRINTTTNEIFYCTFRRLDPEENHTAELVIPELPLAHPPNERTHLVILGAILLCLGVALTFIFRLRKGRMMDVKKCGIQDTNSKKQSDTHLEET
T2 sequence (Q9NZQ7 19-290): as the sequence (Q9NZQ7 19-290, one chain of several) above
T3 sequence (Q9NZQ7 19-238 limits assumed): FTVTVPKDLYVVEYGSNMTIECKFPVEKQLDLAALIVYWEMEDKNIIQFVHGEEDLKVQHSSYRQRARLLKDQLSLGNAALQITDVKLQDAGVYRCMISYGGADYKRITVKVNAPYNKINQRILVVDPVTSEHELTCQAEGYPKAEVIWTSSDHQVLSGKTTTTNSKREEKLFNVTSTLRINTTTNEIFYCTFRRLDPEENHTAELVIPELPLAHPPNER
T4 sequence (Q9NZQ7 19-238 limits assumed): as above
T5 sequence (Q9NZQ7 19-238 limits assumed): as above

Row | EC50 [1] [nM] | MFI maximum value [1] [MFI] | EC50 (nM), PD-1 / NFAT-luciferase reporter [2] [nM] | Maximum fluorescence value (RLU) [2] [RLU] | IC50 [3] [nM] | Maximum inhibition rate (%) [3] [%] | IC50 [4] [nM] | Maximum inhibition rate (%) [4] [%] | IC50 [5] [nM] | Maximum inhibition rate (%) [5] [%] | EC50 [6] [nM] | EC50 (nM), PD-1 / NFAT-luciferase reporter [7] [nM] | Maximum fluorescence value (RLU) [7] [RLU] | IC50 [8] [nM] | Maximum inhibition rate (%) [8] [%] | EC50 [9] [nM] | MFI maximum value [9] [MFI] | Binder
1 | 0.521 | 6890 | 2.71 | 79700 | 0.351 | 37.5 | 0.448 | 89 | 0.987 | 91.6 | – | – | – | – | – | – | – | PR000071 (antibody, human IgG1, kappa, N297A, V domains shown, fully human recombinant antibody, human IgG1 heavy chain, kappa light chain (IGKV1-5); also called 95C7C4A9) VH: EVQLVESGGGLVQPGGSLRLSCAASGFTFSSYWMSWVRQAPGKGLEWVANIKQDGSEKYYVDSVKGRFTISRDNAKNSQYLQMNSLRAEDTAVYYCARDRAVAGASDIWGQGTMVTVSS VL: not shown
2 | – | – | – | – | – | – | – | – | – | – | 0.0338 | – | – | – | – | – | – | PR000262 (antibody, human IgG1, kappa, N297A, V domains shown, PTM variant of PR000066 (H:G55A); heavy chain human IgG1 (N297A)) VH: EVQLVESGGGLVQPGGSLRLSCAASGFTFSSYWMSWVRQAPGKGLEWVANIKQDASEKYYVDSVKGRFTISRDNAKNSLYLQMNSLRAEDTAVYYCARDRAVAGASAFWGQGTMVTVSS VL: DIQMTQSPSTLSASVGHRVTITCRASQSISIWLAWYQQKPGKAPDLLIYKASSLETGVPSRFSGSGSGTEFTLTISSLQPDDFATYYCQQYYGSSRTFGQGTKVEIKR
3 | 0.312 | 7530 | 0.271 | 83300 | 0.28 | 33 | 0.313 | 90.7 | 0.836 | 92.3 | 0.0637 | – | – | – | – | – | – | PR000069 (antibody, human IgG1, kappa, N297A, V domains shown, fully human recombinant antibody, human IgG1 heavy chain, kappa light chain (IGKV1-5); also called 85C5E4G3) VH: EVQLVESGGGLVQPGGSLRLSCAASGFTFSSYWMSWVRQAPGKGLEWVANIKQDGSEKYYVDSVKGRFTISRDNAKNSLYLQMNSLRAEDTAVFYCARDRAVAGAFAIWGQGTMVTVSS VL: DIQMTQSPSTLSASVGDRVTITCRASQSIYIWLAWYQQHPGKAPKLLIYKASSLESGVPSRFSGSGSGTEFTLTISSLQPDDFATYFCQQYYGYSRTFGQGTKVEIRR
4 | – | – | – | – | – | – | – | – | – | – | 0.0462 | 0.796 | 43000 | 1.04 | 91 | 0.775 | 22400 | PR000267 (antibody, human IgG1, kappa, N297A, V domains shown, heavy chain human IgG1 (N297A)) VH: EVQLVESGGGLVQPGGSLRLSCAASGFTFSSYWMSWVRQAPGKGLEWVANIKQEGSEKYYGDSVKGRFTISRDNAKNSLYLQMNSLRAEETAVYYCARDRAVAGASDIWGQGTMVTVSS VL: DIQMTQSPSTLSASVGDRVTITCRASQSISSWLAWYQQKPGKAPNLLIYKASSLETGVPSRFSGSGSGTEFTLTISSLQPDDFATYYCQQYYGYSRTFGQGTKVEIKR
5 | – | – | – | – | – | – | – | – | – | – | 0.0385 | – | – | – | – | – | – | PR000261 (antibody, human IgG1, kappa, N297A, V domains shown, PTM variant of PR000066 (H:D54E); heavy chain human IgG1 (N297A)) VH: EVQLVESGGGLVQPGGSLRLSCAASGFTFSSYWMSWVRQAPGKGLEWVANIKQEGSEKYYVDSVKGRFTISRDNAKNSLYLQMNSLRAEDTAVYYCARDRAVAGASAFWGQGTMVTVSS VL: DIQMTQSPSTLSASVGHRVTITCRASQSISIWLAWYQQKPGKAPDLLIYKASSLETGVPSRFSGSGSGTEFTLTISSLQPDDFATYYCQQYYGSSRTFGQGTKVEIKR
6 | – | – | – | – | – | – | – | – | – | – | 0.0321 | – | – | – | – | – | – | PR000263 (antibody, human IgG1, kappa, N297A, V domains shown, heavy chain human IgG1 (N297A)) VH: EVQLVESGGGLVQPGGSLRLSCAASGFTFSSYWMSWVRQAPGKGLEWVANIKQEGSEKYYVDSVKGRFTISRDNAKNSLYLQMNSLRAEDTAVFYCARDRAVAGAFAIWGQGTMVTVSS VL: DIQMTQSPSTLSASVGDRVTITCRASQSIYIWLAWYQQHPGKAPKLLIYKASSLESGVPSRFSGSGSGTEFTLTISSLQPDDFATYFCQQYYGYSRTFGQGTKVEIRR
7 | – | – | – | – | – | – | – | – | – | – | 0.0343 | – | – | – | – | – | – | PR000264 (antibody, human IgG1, kappa, N297A, V domains shown, heavy chain human IgG1 (N297A)) VH: EVQLVESGGGLVQPGGSLRLSCAASGFTFSSYWMSWVRQAPGKGLEWVANIKQDASEKYYVDSVKGRFTISRDNAKNSLYLQMNSLRAEDTAVFYCARDRAVAGAFAIWGQGTMVTVSS VL: DIQMTQSPSTLSASVGDRVTITCRASQSIYIWLAWYQQHPGKAPKLLIYKASSLESGVPSRFSGSGSGTEFTLTISSLQPDDFATYFCQQYYGYSRTFGQGTKVEIRR
8 | 0.292 | 7630 | 0.293 | 78000 | 0.253 | 47.6 | 0.237 | 89.8 | 0.746 | 92.5 | 0.0474 | – | – | – | – | – | – | PR000072 (antibody, human IgG1, kappa, N297A, V domains shown, fully human recombinant antibody, human IgG1 heavy chain, kappa light chain (IGKV1-5); also called 98E11H1C9) VH: EVQLVESGGGLVQPGGSLRLSCAASGFTFSSYWMSWVRQAPGKGLEWVANIKQDGSEKYYGDSVKGRFTISRDNAKNSLYLQMNSLRAEETAVYYCARDRAVAGASDIWGQGTMVTVSS VL: DIQMTQSPSTLSASVGDRVTITCRASQSISSWLAWYQQKPGKAPNLLIYKASSLETGVPSRFSGSGSGTEFTLTISSLQPDDFATYYCQQYYGYSRTFGQGTKVEIKR

The next lines start with the binder.

Row | Binder | EC50 [1] [nM] | MFI maximum value [1] [MFI] | EC50 (nM), PD-1 / NFAT-luciferase reporter [2] [nM] | Maximum fluorescence value (RLU) [2] [RLU] | IC50 [3] [nM] | Maximum inhibition rate (%) [3] [%] | IC50 [4] [nM] | Maximum inhibition rate (%) [4] [%] | IC50 [5] [nM] | Maximum inhibition rate (%) [5] [%] | EC50 [6] [nM] | EC50 (nM), PD-1 / NFAT-luciferase reporter [7] [nM] | Maximum fluorescence value (RLU) [7] [RLU] | IC50 [8] [nM] | Maximum inhibition rate (%) [8] [%] | EC50 [9] [nM] | MFI maximum value [9] [MFI]
9 | PR000067 (antibody, human IgG1, kappa, N297A, V domains shown, fully human recombinant antibody, human IgG1 heavy chain, kappa light chain (IGKV1-5); also called 73G3G9B11) VH: EVQLVESGGGLVQPGGSLRLSCAASGFTFSSYWMSWVRQAPGKGLEWVANIKQDGSEKYYVDSVKGRFTISRDNAKNSLYLQMNSLRAEDTAVYYCARDRAVAGAFDIWGQGTMVTVSS VL: not shown | 0.456 | 7340 | 0.682 | 79800 | 0.153 | 36.9 | 0.333 | 92.9 | 0.894 | 91.2 | – | – | – | – | – | – | –
10 | PR000070 (antibody, human IgG1, kappa, N297A, V domains shown, fully human recombinant antibody, human IgG1 heavy chain, kappa light chain (IGKV1-5); also called 91G3H5H3) VH: EVQLVESGGGLVQPGGSLRLSCAASGFTFSSYWMSWVRQAPGKGLEWVANIKQDGSEKYYVDSVKGRFTISRDNAKNSLYLQMNSLRAEDTAVYYCARDRAVAGAFDIWGQGTMVTVSS VL: DIQMTQSPSTLSASVGDRVTVTCRASQSIYIWLAWYQQKPGKAPNLLIYKASSLETGVPSRFSGSGSGTEFTLTISSLQPDDFATYYCQQYYGSSRTFGQGTKVEIKR | 0.21 | 7790 | 0.269 | 82700 | 0.305 | 39.9 | 0.2 | 90.6 | 0.449 | 90.7 | 0.0641 | – | – | – | – | – | –
11 | PR000065 (antibody, human IgG1, kappa, N297A, V domains shown, fully human recombinant antibody, human IgG1 heavy chain, kappa light chain (IGKV1-5); also called 67C1F7G6) VH: EVQLVESGGGLVQPGGSLRLSCAASGFTFSSYWMSWVRQAPGKGLEWVANIKQDGSEKYYVDSVKGRFTISRDNAKNSLYLQMNSLRAEDTAVYYCARDRAVAGAFDIWGQGTMVTVSS VL: DIQMTQSPSTLSASVGDRVTITCRASQSIFIWLAWYQQKPGKAPNLLIYKASSLETGVPSRFSGSGSGTEFTLTISSLQPDDFATYYCQQYYGSSRTFGQGTKVEIKR | 0.412 | 7660 | – | – | 0.312 | 43.8 | 0.432 | 99 | – | – | – | – | – | – | – | – | –
12 | PR000064 (antibody, human IgG1, kappa, N297A, V domains shown, fully human recombinant antibody, human IgG1 heavy chain, kappa light chain (IGKV1-5); also called 63G11H3G9) VH: EVQLVESGGGLVQPGGSLRLSCAASGFTFSSYWMSWVRQAPGKGLEWVANIKQDGSEKYYVDSVKGRFTISRDNAKNSLYLQMNSLRAEDTAVYYCARDRAVAGAFDIWGQGTMVTVSS VL: DIQMTQSPSTLSTSVGDRVTITCRASQSISIWLAWYQQKPGKAPKLLIYKASSLESGVPSRFSGSGSGTEFTLTISSLQPDDFATYYCQQYYGYSRTFGQGTKVEIKR | 0.417 | 7880 | 0.533 | 81600 | 0.284 | 35.9 | 0.313 | 91.1 | 0.938 | 91.5 | – | – | – | – | – | – | –
13 | PR000066 (antibody, human IgG1, kappa, N297A, V domains shown, fully human recombinant antibody, human IgG1 heavy chain, kappa light chain (IGKV1-5); also called 69B8G8C2) VH: EVQLVESGGGLVQPGGSLRLSCAASGFTFSSYWMSWVRQAPGKGLEWVANIKQDGSEKYYVDSVKGRFTISRDNAKNSLYLQMNSLRAEDTAVYYCARDRAVAGASAFWGQGTMVTVSS VL: DIQMTQSPSTLSASVGHRVTITCRASQSISIWLAWYQQKPGKAPDLLIYKASSLETGVPSRFSGNGSGTEFTLTISSLQPDDFATYYCQQYYGSSRTFGQGTKVEIKR | 0.255 | 7860 | 0.292 | 85900 | 0.198 | 47.2 | 0.35 | 93 | 0.539 | 91.8 | 0.0189 | – | – | – | – | – | –
14 | PR000068 (antibody, human IgG1, kappa, N297A, V domains shown, fully human recombinant antibody, human IgG1 heavy chain, kappa light chain (IGKV1-5); also called 82F8H7E1) VH: EVQLVESGGGLVQPGGSLRLSCAASGFTFSSYWMSWVRQAPGKGLEWVANIKQDGSEKYYVDSVKGRFTISRDNAKNSLYLQMNSLRAEDTAVYYCARDRPVAGASDIWGQGTMVTVSS VL: not shown | 0.326 | 7640 | 0.603 | 83300 | 0.199 | 35 | 0.288 | 91.6 | 0.853 | 91.4 | – | – | – | – | – | – | –
